Legend:
Assay type in all cases: in vivo, human
[1] = test system: blasts; assay: Phase I/II trial: blasts in bone marrow and peripheral blood (cytomorphology, flow cytometry, MRD)
Protocol: (§1) FIGS. 6A-6C Bone marrow (BM) blast load was assessed by cytomorphology (FIG. 6A), and flow cytometry using leukemia-associated immunophenotype (LAIP) gating (FIG. 6B) and blast gating (SSClow CD45dim; FIG. 6C). The latter method was used to determine measurable/minimal residual disease (MRD) status of the patient.
as §1, with “7A-7C Peripheral blood (PB)” for “6A-6C Bone marrow (BM)”, “7A),” for “6A),”, “7B)” for “6B)”, “CD45 dim;” for “CD45dim;”, “7C).” for “6C).”
Minimal residual disease (MRD) assessments were performed on bone marrow aspirates and/or whole blood collected at time points as specified in FIG. 5. Flow cytometry was utilized as the primary method of MRD analysis. Suitable flow cytometry markers for MRD assessment and determining AML subtype include CD16, CD13, CD34, CD117, CD11 b, CD10, HLA-DR, CD45, CD35, CD64, IREM-2, CD36, CD105, CD14, CD33, CD71, CD36, CD105, CD33, CD71, cTdT, CD56, CD7, CD19, cMPO, cLactoferrin, cLysozyme. An additional panel was used as a part of the trial, focusing on CD70, CD27 expression as well as markers indicative of stem cell potential or myeloid differentiation: CD27, CD70, CD34, CD117, CD11 b, HLA-DR, CD45, CD38, and CD123. When available, flow cytometry results were compared to other molecular approaches such as polymerase chain reaction (PCR) test.
For each patient, the number of blasts in bone marrow and peripheral blood were assessed at various time-points as outlined in FIG. 5.
(§2) To assess bone marrow blasts, bone marrow aspirates taken at the various time points were analysed. Methylcellulose colony assays using FACS sorted monocytes (mononuclear cells (CD45^dim) were selectively sorted by excluding doublets, dead cells and lymphocytes using Annexin V and antibodies for CD19 and CD4/CD8) were used to assess the number of LSCs in the bone marrow. In addition, bone marrow blast percentages were also assessed by cell morphology and flow cytometric analysis.

[2] = test system: LSCs; assay: Methylcellulose colony assays of patient mononuclear cells (LSC number/frequency, ELDA)
Protocol: FIGS. 9A-9F αCD70 mAb treatment reduces CD34^+CD38^− AML stem/progenitor cell frequencies in AML patients. (FIG. 9A) Colony formation of P2. 10^4 BM MNCs of patient P002 at diagnosis (SCR) and 14 days after administration of ARGX110 (1 mg/kg i.v., time point 0, or C1D1) were plated in methylcellulose and colony formation was assessed 2 weeks later. (FIG. 9B) Fold change in colony formation of different patients treated with indicated doses of ARGX110. (FIG. 9C) Colony formation at limiting dilution from P2. (FIG. 9D) Stem cell frequencies at SCR and Time point 0 determined in enhanced limiting dilution experiments for P2 and different patients treated with indicated doses of ARGX110. Data are represented as mean±S.D. Statistics: (a, b, e) Student's t-test; (FIG. 9E): χ^2 test; **, P<0.01; ***, P<0.001. (FIG. 9F) Colony formation of P2. 10^4, 5×10^3, 10^3 and 10^2 BM MNCs of patient P002 at diagnosis (SCR), 14 days after administration of ARGX110 (1 mg/kg i.v., time point 0, or C1D1) and after combination treatment (“combi”) were plated in methylcellulose and colony formation was assessed 2 weeks later.
as §2
To further explore the impact of the mono and combination therapies on the LSC populations in patients, methylcellulose colony assays using FACS sorted ex vivo monocytes were performed. Mononuclear cells (CD45^dim) were selectively sorted by excluding doublets, dead cells and lymphocytes using Annexin V and antibodies for CD19 and CD4/CD8 and serially plated on methylcellulose for 14 days.
Bone marrow aspirate taken at day 1 was compared to bone marrow aspirate taken before administration of the ARGX-110 loading dose. Methylcellulose colony assays using FACS sorted monocytes (mononuclear cells (CD45^dim) were selectively sorted by excluding doublets, dead cells and lymphocytes using Annexin V and antibodies for CD19 and CD4/CD8) were used to assess the number of LSCs in the bone marrow.

[3] = test system: soluble CD27; assay: Serum soluble CD27 ELISA in patients; conditions: representative patient
Protocol: FIG. 10 The serum samples were analysed using an ELISA (Duoset ELISA, human CD27/TNFRSF7 (cat: DY382-05, R&D Systems). Concentration of soluble CD27 in the sample is calculated from a calibration curve. The method allows measurement of the serum concentration of natural human soluble CD27 by means of a sandwich ELISA method. Goat Anti-Human CD27 Capture antibody is coated on a microplate and nonspecific binding sites are blocked. Human serum samples are applied and bound human soluble CD27 is detected and visualized by the subsequent additions of Biotinylated Goat Anti-Human CD27 Detection antibody, Streptavidin-HRP and the mixture of the colour reagent H2O2 and the chromogenic substrate tetramethylbenzidine (TMB).
To assess the effect of anti-CD70 monotherapy and combination therapy on the CD27/CD70 interaction as well as to further explore the effect on blast percentage and stemness, patients' soluble CD27 levels were also measured.

[4] = Phase I/II trial: peripheral blood counts
From the text: By C2D17, the percentage of blasts in peripheral blood was 0.8% by flow cytometry and 0% by cell morphology.
Patient 1001003 is a person with AML with myelodysplasia-related changes by WHO classification (AML-M2 by FAB classification) and 24% bone marrow blasts. […] Blast percentage at C1D1 was stable.

[5] = patient 1001001, 1 mg/kg with AZA, C3D1
[6] = patient 1001001, 1 mg/kg with AZA, C4D1
[7] = patient 1001002, 1 mg/kg with AZA, C2D17
[8] = patient 1001002, single dose 1 mg/kg
[9] = patient 1001002, loading dose 1 mg/kg
[10] = patient 1001002, 1 mg/kg with AZA, C3D17
[11] = patient 1001003, with AZA, C2D1

B1: ARGX-110: IgG1 anti-CD70 antibody with defucosylated Fc region; VH SEQ ID NO: 4, VL SEQ ID NO: 8 (antibody, V domains shown)
VH: EVQLVESGGGLVQPGGSLRLSCAASGFTFSVYYMNWVRQAPGKGLEWVSDINNEGGTTYYADSVKGRFTISRDNSKNSLYLQMNSLRAEDTAVYYCARDAGYSNHVPIFDSWGQGTLVTVSS
VL: QAVVTQEPSLTVSPGGTVTLTCGLKSGSVTSDNFPTWYQQTPGQAPRLLIYNTNTRHSGVPDRFSGSILGNKAALTITGAQADDEAEYFCALFISNPSVEFGGGTQLTVLG
modifications: IgG1, defucosylated Fc; Custom antibody fragment
[1]; following monotherapy, C1D1 vs earlier
  PB blast percentage: reduced
[1]; in vivo
  bone marrow blasts according to MRD criteria: significantly reduced
[1]; majority of patients, by C1D1 following monotherapy
  bone marrow blast percentage: at least partially or completely reduced by C1D1
[1]; [5]
  BM blasts by flow cytometry: 2.8%
  MRD for peripheral blood: 0.3%
  minimal residual disease analysis (MRD), bone marrow: 0.2%
[1]; [6]
  peripheral blood blast percentage by cell morphology: 0%
  peripheral blood blast percentage by flow cytometry: 0.8%
[1]; patient 1001001, 1 mg/kg with AZA, C4D17
  peripheral blood MRD class: MRD-negative
[1]; patient 1001001, 1 mg/kg with AZA, after first complete cycle (C2D1)
  peripheral blood blasts: cleared
[1]; patient 1001001, single (loading) dose 1 mg/kg
  blast cell populations by cell morphology and flow cytometry: reduction in bone marrow and in peripheral blood
[1]; [7]
  percentage of blasts in peripheral blood by cell morphology: 0%
  percentage of blasts in peripheral blood by flow cytometry: 0.8%
[1]; patient 1001002, 1 mg/kg with AZA, end of cycle 1 (C2D1)
  overall blast percentage in peripheral blood: approaching zero
[1]; patient 1001002, after loading dose 1 mg/kg (C1D1 vs screening)
  overall blast percentage in peripheral blood: fell
[1]; [8]
  percentage of total blasts in bone marrow by cell morphology: an increase was observed
  percentage of total blasts in bone marrow by flow cytometry: appeared to be reduced
[1]; patient 1001003, C1D1
  blast percentage: stable
[1]; patient 1001003, with AZA, 1 cycle (C2D1)
  peripheral blasts: no peripheral blasts
[1]; under combination therapy with aza, from C1D1 onwards
  PB blast percentage: further reduced
[2]; FIG. 9F, after monotherapy (C1D1) and combination therapy (C4D1)
  reduction in LSC frequency compared to baseline: ~24 fold
[2]; following therapy (data not shown)
  number of cells per colony: reduced
[2]; monotherapy, then combination
  circulating LSC levels: reduced
[2]; patient 1001001, single dose 1 mg/kg, day 1 vs before loading dose, ELDA
  factor of reduction of the number of LSCs in the bone marrow: 140,000
[2]; [9]
  cell number per colony: reduced
  factor of reduction of LSCs in the bone marrow: 2
[2]; patient 1001002, loading dose 1 mg/kg, all informative serial dilution concentrations
  decrease of colony formation: greater than 50%
[3]
  sCD27 levels after the end of treatment (EOT): rise after the end of treatment
[3]; monotherapy C1D1 vs Loading, then combination therapy
  sCD27 levels: reduces sCD27 levels compared to before treatment
[4]; [10]
  Hb: 10.2 g/dL
  absolute neutrophil count (ANC): 0.97 G/L
  platelets: 128 G/L
[4]; [11]
  ANC: 0.38 G/L
  Hb: 9.2 g/dL
  platelets: 98 G/L

From patent US20190106498A1, “TREATMENT FOR ACUTE MYELOID LEUKEMIA” (priority 2017, published 2019)
